Laboratory results reported in PMC12203670, “MTX2 facilitates PKM2 tetramerization to promote cardiac glucose metabolism and protects the heart against ischemia/reperfusion injury” (Theranostics, 2025).
Where “and” joins values, the source holds several entries; their conditions need not be identical. Equal entries are not always repeated.

Molecular target: the molecule itself
Assay: cross-linking; glutaraldehyde cross-linking, Western blot of PKM2 oligomers; Mtx2 KO H9C2 cells overexpressing MTX2 mutants, H/R

B1: PKM2 in Mtx2 KO H9C2 cells (cross-linking) (enzyme)
chain: not shown
notes: pyruvate kinase PKM, splice isoform M2; also called dimeric PKM2; source: Mtx2 KO H9C2 cells overexpressing MTX2 mutants, H/R
stoichiometry N: 2 and 4
